The text below walks through data of patent publication US6387696.

In test [1] the target is recombinant human calcium channel α1B-2β1-2 on transfected HEK293 cells (human). Briefly: saturation binding of 125I-ω-CgTx GVIA to transiently transfected HEK293 cells.
The target in test [2] is recombinant human calcium channel α1B-1β1-2 on transfected HEK293 cells (human). The description is as above.
The target of test [3] is recombinant human calcium channel α1B-2β1-3 on transfected HEK293 cells (human). The description is as above.
Test [4] deals with recombinant human calcium channel α1B-2α2bβ1-2 on transfected HEK293 cells (human). The description is as above.
Sequence of recombinant human calcium channel α1B-2α2bβ1-2 on transfected HEK293 cells (human) (B1AQK5 whole entry, chain 1 of 3): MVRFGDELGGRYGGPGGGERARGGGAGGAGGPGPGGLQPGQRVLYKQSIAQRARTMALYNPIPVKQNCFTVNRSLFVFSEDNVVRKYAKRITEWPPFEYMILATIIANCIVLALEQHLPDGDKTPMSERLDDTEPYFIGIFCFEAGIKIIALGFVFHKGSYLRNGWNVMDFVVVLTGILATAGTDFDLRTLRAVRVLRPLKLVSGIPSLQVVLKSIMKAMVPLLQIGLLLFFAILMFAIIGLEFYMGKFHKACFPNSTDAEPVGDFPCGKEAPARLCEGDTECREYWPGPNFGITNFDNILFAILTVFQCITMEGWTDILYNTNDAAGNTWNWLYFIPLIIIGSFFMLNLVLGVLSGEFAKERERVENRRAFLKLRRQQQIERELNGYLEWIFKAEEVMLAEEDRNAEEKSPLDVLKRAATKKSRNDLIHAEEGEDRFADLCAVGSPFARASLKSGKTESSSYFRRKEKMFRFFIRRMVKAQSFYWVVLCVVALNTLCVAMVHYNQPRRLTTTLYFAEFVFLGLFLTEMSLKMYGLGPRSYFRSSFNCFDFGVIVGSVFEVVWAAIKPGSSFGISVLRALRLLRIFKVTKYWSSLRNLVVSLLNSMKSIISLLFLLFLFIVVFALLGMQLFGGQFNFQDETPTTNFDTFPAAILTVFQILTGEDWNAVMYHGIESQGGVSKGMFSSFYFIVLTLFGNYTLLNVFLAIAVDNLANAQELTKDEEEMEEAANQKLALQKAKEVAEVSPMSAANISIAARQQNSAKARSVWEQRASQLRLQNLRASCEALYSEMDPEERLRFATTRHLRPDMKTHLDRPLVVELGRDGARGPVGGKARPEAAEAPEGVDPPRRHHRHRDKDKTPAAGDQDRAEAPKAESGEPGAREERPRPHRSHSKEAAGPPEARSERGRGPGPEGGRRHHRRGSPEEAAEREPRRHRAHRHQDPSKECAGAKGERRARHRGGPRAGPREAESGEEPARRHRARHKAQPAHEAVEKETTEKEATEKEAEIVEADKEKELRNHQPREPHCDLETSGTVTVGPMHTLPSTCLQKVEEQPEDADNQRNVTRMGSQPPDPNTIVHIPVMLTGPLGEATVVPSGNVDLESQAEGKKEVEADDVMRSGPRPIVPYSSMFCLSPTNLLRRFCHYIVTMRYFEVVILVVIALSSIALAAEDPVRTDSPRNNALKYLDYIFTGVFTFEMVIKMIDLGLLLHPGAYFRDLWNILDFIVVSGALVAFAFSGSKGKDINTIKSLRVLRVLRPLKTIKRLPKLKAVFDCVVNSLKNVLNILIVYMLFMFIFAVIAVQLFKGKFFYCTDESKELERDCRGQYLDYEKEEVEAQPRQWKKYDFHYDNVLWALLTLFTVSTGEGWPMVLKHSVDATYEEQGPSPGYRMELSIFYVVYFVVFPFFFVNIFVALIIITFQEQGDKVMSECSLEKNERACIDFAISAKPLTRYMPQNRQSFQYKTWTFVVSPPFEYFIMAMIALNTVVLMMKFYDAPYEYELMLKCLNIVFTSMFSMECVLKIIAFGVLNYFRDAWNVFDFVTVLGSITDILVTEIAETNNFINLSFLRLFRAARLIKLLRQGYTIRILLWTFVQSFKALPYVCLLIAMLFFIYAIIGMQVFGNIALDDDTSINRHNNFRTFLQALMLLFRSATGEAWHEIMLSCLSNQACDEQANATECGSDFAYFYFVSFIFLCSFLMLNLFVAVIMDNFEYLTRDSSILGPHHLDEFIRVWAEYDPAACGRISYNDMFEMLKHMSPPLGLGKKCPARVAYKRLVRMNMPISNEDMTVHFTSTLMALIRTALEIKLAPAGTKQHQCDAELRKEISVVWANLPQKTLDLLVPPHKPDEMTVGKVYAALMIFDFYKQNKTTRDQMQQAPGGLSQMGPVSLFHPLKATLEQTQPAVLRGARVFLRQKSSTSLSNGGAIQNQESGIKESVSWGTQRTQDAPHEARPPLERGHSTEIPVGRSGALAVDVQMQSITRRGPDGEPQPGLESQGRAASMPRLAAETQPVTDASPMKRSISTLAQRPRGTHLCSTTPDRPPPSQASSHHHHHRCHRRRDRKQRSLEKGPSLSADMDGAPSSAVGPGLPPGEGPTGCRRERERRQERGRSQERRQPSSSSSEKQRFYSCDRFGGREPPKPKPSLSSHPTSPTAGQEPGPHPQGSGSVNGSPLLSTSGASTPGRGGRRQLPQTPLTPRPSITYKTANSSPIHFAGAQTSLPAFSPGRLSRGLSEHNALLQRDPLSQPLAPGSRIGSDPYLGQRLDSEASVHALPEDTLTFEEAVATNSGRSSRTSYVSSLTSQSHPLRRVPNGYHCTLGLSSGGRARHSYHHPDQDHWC
Sequence of recombinant human calcium channel α1B-2α2bβ1-2 on transfected HEK293 cells (human) (P54289 whole entry, chain 2 of 3, further chain): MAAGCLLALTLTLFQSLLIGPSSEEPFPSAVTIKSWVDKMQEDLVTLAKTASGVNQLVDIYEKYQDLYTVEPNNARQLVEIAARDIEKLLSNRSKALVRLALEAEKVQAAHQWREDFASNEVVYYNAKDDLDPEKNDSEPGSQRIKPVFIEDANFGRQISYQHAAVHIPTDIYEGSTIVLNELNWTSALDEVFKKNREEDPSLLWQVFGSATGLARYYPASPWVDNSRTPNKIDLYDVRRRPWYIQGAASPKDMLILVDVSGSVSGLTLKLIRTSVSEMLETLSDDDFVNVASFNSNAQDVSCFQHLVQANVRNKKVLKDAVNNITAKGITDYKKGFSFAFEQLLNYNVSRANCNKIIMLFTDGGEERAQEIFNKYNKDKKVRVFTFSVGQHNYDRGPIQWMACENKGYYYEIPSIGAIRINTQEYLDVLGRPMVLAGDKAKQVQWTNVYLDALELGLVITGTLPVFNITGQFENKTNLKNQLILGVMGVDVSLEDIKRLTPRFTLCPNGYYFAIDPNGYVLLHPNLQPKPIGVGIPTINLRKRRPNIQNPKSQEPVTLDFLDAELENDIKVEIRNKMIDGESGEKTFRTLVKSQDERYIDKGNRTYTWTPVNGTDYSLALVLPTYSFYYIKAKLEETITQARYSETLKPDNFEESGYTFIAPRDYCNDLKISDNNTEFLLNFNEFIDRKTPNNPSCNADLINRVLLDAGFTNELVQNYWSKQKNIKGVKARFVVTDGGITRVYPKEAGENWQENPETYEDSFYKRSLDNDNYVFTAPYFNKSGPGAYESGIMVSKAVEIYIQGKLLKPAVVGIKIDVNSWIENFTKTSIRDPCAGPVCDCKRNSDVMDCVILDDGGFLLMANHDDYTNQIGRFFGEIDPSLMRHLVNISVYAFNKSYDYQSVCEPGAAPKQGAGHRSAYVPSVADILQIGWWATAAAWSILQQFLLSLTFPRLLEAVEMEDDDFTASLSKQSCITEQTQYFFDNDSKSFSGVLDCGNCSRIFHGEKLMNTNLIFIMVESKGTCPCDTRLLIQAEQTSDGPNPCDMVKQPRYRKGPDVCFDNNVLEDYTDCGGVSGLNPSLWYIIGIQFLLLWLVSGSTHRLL
Sequence of recombinant human calcium channel α1B-2α2bβ1-2 on transfected HEK293 cells (human) (A8K114 whole entry, chain 3 of 3, further chain): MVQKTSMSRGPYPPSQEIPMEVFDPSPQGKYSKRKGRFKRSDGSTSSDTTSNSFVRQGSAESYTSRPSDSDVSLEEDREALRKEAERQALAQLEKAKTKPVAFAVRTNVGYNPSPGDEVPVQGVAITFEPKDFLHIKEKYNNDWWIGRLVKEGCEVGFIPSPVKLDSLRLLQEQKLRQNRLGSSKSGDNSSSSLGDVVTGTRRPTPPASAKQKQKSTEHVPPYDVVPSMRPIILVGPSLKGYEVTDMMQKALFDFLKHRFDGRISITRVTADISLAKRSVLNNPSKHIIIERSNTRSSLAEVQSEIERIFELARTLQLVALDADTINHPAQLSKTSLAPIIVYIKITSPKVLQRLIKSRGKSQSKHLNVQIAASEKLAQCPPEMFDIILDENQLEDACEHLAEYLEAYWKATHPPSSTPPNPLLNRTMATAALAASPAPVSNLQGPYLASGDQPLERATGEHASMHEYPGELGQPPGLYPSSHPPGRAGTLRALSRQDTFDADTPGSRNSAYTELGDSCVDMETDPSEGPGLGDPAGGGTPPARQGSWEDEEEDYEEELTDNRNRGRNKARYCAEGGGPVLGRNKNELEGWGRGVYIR
In test [5] the target is recombinant human calcium channel α1B-1α2bβ1-2 on transfected HEK293 cells (human). The test is described as above.
Sequence of recombinant human calcium channel α1B-1α2bβ1-2 on transfected HEK293 cells (human) (B1AQK5 whole entry, chain 1 of 3): as the sequence (B1AQK5 whole entry, chain 1 of 3) above
Sequence of recombinant human calcium channel α1B-1α2bβ1-2 on transfected HEK293 cells (human) (P54289 whole entry, chain 2 of 3, further chain): as the sequence (P54289 whole entry, chain 2 of 3, further chain) above
Sequence of recombinant human calcium channel α1B-1α2bβ1-2 on transfected HEK293 cells (human) (A8K114 whole entry, chain 3 of 3, further chain): as the sequence (A8K114 whole entry, chain 3 of 3, further chain) above
Test [6] has as its target recombinant human calcium channel α1B-1β1-3 on transfected HEK293 cells (human). Described as above.
In test [7] the target is recombinant human calcium channel α1B-2α2bβ1-3 on transfected HEK293 cells (human). The test is described as above.
For test [8], the target named is recombinant human calcium channel α1B-1α2bβ1-2 on transfected HEK293 cells (human). Briefly: ω-CgTx binding to transiently transfected HEK293 cells (8, 5 and 2 µg plasmids).
In test [9] the target is T1, recombinant human calcium channel α1B-1α2b on transfected HEK293 cells (human). Briefly: saturation binding of 125I-ω-CgTx GVIA to transiently transfected HEK293 cells.
T1 sequence (B1AQK5 whole entry, chain 1 of 2): as the sequence (B1AQK5 whole entry, chain 1 of 3) above
T1 sequence (P54289 whole entry, chain 2 of 2, further chain): as the sequence (P54289 whole entry, chain 2 of 3, further chain) above
In test [10] the target is T1, recombinant human calcium channel ….
Test [11] concerns the target human calcium channel α1B-1 subunit alone on transfected HEK293 cells (human).

As a reminder, the Kd is the equilibrium constant for the complex coming apart.

Sequence of human calcium channel α1B-1 subunit alone on transfected HEK293 cells (human) (B1AQK5 whole entry): as the sequence (B1AQK5 whole entry, chain 1 of 3) above

With “125I-ω-CgTx GVIA (from UniProt P01522 46-72) (peptide)”, in test [1], the Bmax (sites/cell) is 2130 sites/cell and the Kd is 0.0164 nM. Further, in test [2], the Bmax (sites/cell) was 5760 sites/cell, the Kd was 0.0179 nM and the fold change of surface binding (Bmax) against α1B-1 alone turned out to be 8 fold. In [3], the Bmax (sites/cell) was 2940 sites/cell and the Kd worked out at 0.0222 nM. In addition, in test [4], the Bmax (sites/cell) stood at 19400 sites/cell, the Kd came to 0.053 nM and the fold change of surface receptor density (Bmax) against α1B-2β1-2 is 9 fold. In test [5], the Bmax (sites/cell) is 45300 sites/cell, the Kd came out at 0.0549 nM, the fold change of binding sites per cell (Bmax) against α1B-2α2bβ1-2 was 2.5 fold and the fold change of surface receptor density (Bmax) against α1B-1β1-2 worked out at 8 fold. For the same molecule, in [6], the Bmax (sites/cell) was 8730 sites/cell, the Kd was determined as 0.0179 nM and the fold change of surface binding (Bmax) against α1B-1 alone was determined as 10 fold. Besides, in test [7], the Bmax (sites/cell) was found to be 37700 sites/cell, the Kd amounted to 0.0443 nM, the fold change of binding capacity (Bmax) against α1B-2α2bβ1-2 was 2 fold and the fold change of surface receptor density (Bmax) against α1B-2β1-3 was 13 fold.

As to “ω-CgTx (from UniProt P01522 46-72) (peptide)”, in test [8], the Kd was determined as 0.0546 nM and the binding capacity (Bmax) (sites per cell) was 28700.

In the case of CKSPGSSCSPTSYNCCRSCNPYTKRCY (modifications not checked) [125I-ω-CgTx GVIA, P01522 46-72], the fold change of binding capacity (Bmax) against α1B-1 alone in [9] was 3 fold. In [10], the Bmax (sites/cell) amounted to 2260 sites/cell and the Kd turned out to be 0.0846 nM. Also, in test [11], the Bmax (sites/cell) amounted to 757 sites/cell and the equilibrium dissociation constant (Kd) worked out at 0.0317 nM.
